Patent US20150299268A1

Target: panel of 118 tier 2,3 viruses
Assay: cell-based or functional assay

B1: N60-B1.1 (antibody, V domains shown)
VH: QLQLQESGPGLVKPSGTLSLTCSVSGGSMNGRNIYWAWIRQTPGKGLEWIGSVDVSDEDAGRTFYKWPIKSRASISADTSKNQFSLKLSSVTVADTGVYYCARETLYYVGNGYYYPLDVFYYNYYMDVWGKGTTVSVSSASTKG
VL: not shown
Question: With B1 as the binder, how does the % of neutralized viruses read?
Answer: Its % of neutralized viruses is 40.2%.

Question: What about the Median IC50 (ug/ml), neutralization of the same binder?
Answer: Its Median IC50 (ug/ml), neutralization is 0.37 µg/mL.

Question: And the average IC50, neutralization (TZM-bl assay)?
Answer: Its average IC50, neutralization (TZM-bl assay) is 0.44 µg/mL.
